{"source": "paper PMC12809912", "about": "“Structural and epitope characterization of anti-DEFA5 monoclonal antibodies clones 1A8 and 4F5 for inflammatory bowel disease subtype diagnostics” (International journal of biological macromolecules, 2025)", "binders": {"B1": {"name": "mouse monoclonal antibody clone 1A8 (anti-DEFA5) (antibody, V domains shown)", "VH": "QVQLQQSGAELVRPGASVKMSCKALGYTFFDYEMHWMKQTPVYGLEWIGAIHPGSGDTAYNQKFKGKATLTADKSSNTAYMELSSLTSEDSAVYYCTREGTVVAPFDYWGQGTTLTVSS", "VL": "DVLMTQTPLSLPVSLGDQASISCRSSQSIVHSNGNTYLEWYLQKPGQSPKLLINKVSNRFSGVPDRFSGSGSGTDFTLKISRVEAEDLGVYYCFQGSYVPYTFGGGTKLEIK", "notes": "the print has a blank between NYKNT and PIMDTDG; Whole IgG, intact mass ~148.73 kDa; also called mAb 1A8; source: mouse hybridoma clone, purified monoclonal antibody"}, "B2": {"name": "mouse monoclonal antibody clone 4F5 (anti-DEFA5) (antibody, V domains shown)", "VH": "B1 VH", "VL": "B1 VL", "notes": "the print has a blank between NYKNT and PIMDTDG; Whole IgG, intact mass ~148.65 kDa; also called mAb 4F5; source: mouse hybridoma clone, purified monoclonal antibody"}}, "settings_in_all_cases": "both partners purified", "key": {"[1]": {"target": "T1, peptide variant of … with the N-terminal Ala61 deleted (Homo sapiens, UniProt Q01523)", "T1 construct": "also called N-terminal deletion mutant; source: synthetic peptide (GenScript, >95 % purity)", "T1 chain": "RATCYCRTGRCATR", "experiment": "ELISA; indirect peptide ELISA: peptide coated at 5 ug/mL overnight at 4 C, antibody in PBST with 1 % BSA 2 h at 37 C, HRP goat anti-mouse IgG, OD 450 nm"}, "[2]": {"target": "T2, peptide No. 57 of the overlapping library, DEFA5 amino acids 61-75 (ARATCYCRTGRCATR) (Homo sapiens)", "T2 construct": "human DEFA5 amino acids 61-75; source: synthetic peptide (GenScript, >95 % purity)", "T2 chain": "ARATCYCRTGRCATR", "experiment": "ELISA; indirect peptide ELISA: peptide coated at 5 ug/mL overnight at 4 C, antibody in PBST with 1 % BSA 2 h at 37 C, HRP goat anti-mouse IgG, OD 450 nm"}, "[3]": {"target": "T3, biotinylated DEFA5 epitope peptide Biotin-RATCYCRTGRCAT (Homo sapiens, cysteine pairing not given here)", "T3 construct": "human DEFA5 residues 62-74; source: synthetic peptide", "T3 chain": "Biotin-RATCYCRTGRCAT", "experiment": "SPR; Biacore 8K, Biotin-RATCYCRTGRCAT immobilised on SA chip (~95 RU), antibodies injected 7.81-125 nM, 25 C, HBS-EP+, 30 uL/min, global fit to a 1:1 binding model"}}, "note": "Ends that are not written are not given here. * marks the point of attachment. Biotin = O=C1N[C@H]2[C@H](CS[C@H]2CCCCC(=O)*)N1", "data": [{"binder": "B1", "values": [{"measurement": "binding result", "setting": "[1]", "result": "binds"}, {"measurement": "binding result", "setting": "[2]", "result": "binds"}, {"measurement": "Kd", "setting": "[3]", "result": 13.5, "unit": "nM"}, {"measurement": "stoichiometry N", "setting": "[3]", "result": 1}]}, {"binder": "B2", "values": [{"measurement": "binding result", "setting": "[1]", "result": "binds"}, {"measurement": "binding result", "setting": "[2]", "result": "binds"}, {"measurement": "Kd", "setting": "[3]", "result": 15, "unit": "nM"}, {"measurement": "stoichiometry N", "setting": "[3]", "result": 1}]}]}
